Values joined by “and” are separate entries in the source; they are usually repeats but may differ in a detail not shown here. Identical values can stand only once.
What was measured:
[1] = biological target: T1, Bovine Submaxillary Mucin (BSM) (bovine); assay: ELISA on BSM-coated wells (3 ug/mL), normalised dose response
T1 construct: Glycoprotein carrier of STn; also called BSM mucin; non-biotinylated BSM
Experimental: (§1) In order to evaluate the antibody binding to the target antigen STn, we employed an in vitro assay using a mucin that naturally expresses STn: Bovine Submaxillary Mucin (BSM). The humanized variants (V1, V2 and V3) were incubated using BSM-coated wells and binding was evaluated using ELISA assay.
(§2) An ELISA-assay was performed using Bovine Submaxillary Mucin (BSM). 96 well plates were coated using BSM [3 ug/mL], dissolved in 1×PBS. Absorbance was detected using a microplate reader at 450 nm. Absorbance values were normalized against the background and plotted as a % of the dose response effect versus the antibody dose (log scale) as shown in the graph. The EC50 (in ug/mL) was calculated for each condition.

[2] = biological target: T1, Bovine Submaxillary Mucin (BSM); assay: ELISA on BSM, OD against antibody concentration
[3] = biological target: T1, Bovine Submaxillary Mucin (BSM); assay: ELISA on BSM-coated wells
Experimental: as §1, §2

B1: humanized anti-STn antibody clone V1 (antibody, V domains shown)
VH: QVQLQESGPGLVKPSQTLSLTCTVIGYSITSGYYWNWIRQPPGKGLEWIGSINYDGSNIYNPSLKSRVTISRDTSKNQFSLKLSSVTAADTAVYYCARGGDYWGQGTTVTVSS
VL: EIVLTQSPATLSLSPGERATLSCSASSSVSYMHWFQQKPGQAPRRWIYDTSKRATGVPARFSGSGSGTDYTLTISSLEPEDFAAYYCQQWSSDPPMLTFGGGTKLEIK
notes: Humanized variant of L2A5; Variable domains were cloned into Absolute Antibody vectors 'of the appropriate species and type' and expressed in HEK 293; also called CBS-V1
B1 was tested, and the EC50 [1] was 0.324 µg/mL and 0.457 µg/mL and the “EC50 (read off the curve)” value [2] was about 0.2 µg/mL.

B2: humanized anti-STn antibody clone V3 (antibody, V domains shown)
VH: QVQLQESGPGLVKPSQTLSLTCSVIGYSITSGYYWNWIRQPPGKGLEWIGSINYDGSNIYNPSLKDRVTISRDTSKNQFSLKLSSVTAADTAVYYCARGGDYWGQGTTVTVSS
VL: EIVLTQSPATLSLSPGERATLSCSASSSVSYMHWFQQKPGQAPRRWIYDTSKRATGVPARFSGSGSGTDYTLTISSLEPEDFAAYYCQQWSSDPPMLTFGGGTKLEIK
notes: Humanized variant of L2A5
In the case of B2, the EC50 [1] is reported as 0.344 µg/mL and 0.449 µg/mL.

B3: humanized anti-STn antibody clone V2 (antibody, V domains shown)
VH: QVQLQESGPGLVKPSQTLSLTCSVIGYSITSGYYWNWIRQPPGKGLEWIGSINYDGSNIYNPSLKDRVTISRDTSKNQFSLKLSSVTAADTAVYYCARGGDYWGQGTTVTVSS
VL: DIVLTQSPAILSLSPGERATLSCSASSSVSYMHWFQQKSGQAPKRWIYDTSKLASGVPARFSGSGSGTDYTLTISSLEAEDFAAYYCQQWSSDPPMLTFGGGTKLEIK
notes: Humanized variant of L2A5; also called CBS-V2
B3 was tested, and the EC50 [1] was 0.0665 µg/mL and 0.137 µg/mL and the “fold decrease in EC50 compared to V1 and V3 clones” value [3] was 3 fold.

From patent US20260258149A1 (BIONTECH, published 2026)
